Our source for the fold binding relative to WT S1-Fc values is paper PMC8106883.

In the assay the target is angiotensin-converting enzyme 2 (ACE2) on transfected HEK293T cells (human) (UniProt Q9BYF1).

S1-hFc N282Q (Fc fusion) yielded a fold binding relative to WT S1-Fc of 3 fold.
